In patent US7968692B2, “Elongase genes and uses thereof” (Abbott Laboratories, priority 1998, dated 2011):

Tested on: S. cerevisiae 334
Assay: Human elongase HSELO1 activity in yeast
Type: cell-based, Saccharomyces cerevisiae
Protocol: The construct pRAE-58-A1 was transformed into S. cerevisiae 334 (Hoveland et al., supra) and screened for elongase activity. The negative control strain was S. cerevisiae 334 containing pYX242 vector. The cultures were grown for 24 hours at 30° C., in selective media (Ausubel et al., supra), in the presence of 25 μM of GLA or AA. In this study, DGLA or adrenic acid (ADA, 22:4n-6), respectively, was the predicted product of human elongase activity. […] Thus, the human elongase converts both 18 and 20 carbon chain long PUFAs to their respective elongated fatty acids.
To further confirm the substrate specificity of the human elongation enzyme, described above and referred to herein as HSELO1, the recombinant yeast strain 334(pRAE-58-A1) was grown in minimal media containing n-6 fatty acids GLA, AA, or n-3 fatty acids ALA, STA, or EPA. […] The levels of these fatty acids were 7.29% (DGLA), 6.26% (ADA), 6.15% (ETrA), 10.06% (ETA), and 6.66% (DPA), respectively, of the total fatty acids in the strain containing the pRAE-58-A1 sequence.
To confirm this hypothesis, 25 μM of exogenous OA was added as a substrate to the recombinant yeast strain 334(pRAE-58-A1).
To determine whether the substrate concentration affects the conversion of 18 and 20 carbon fatty acids to the respective elongated products, two different concentrations of GLA, AA, and EPA were examined (FIG. 52).
Although the addition of more substrates led to higher percentages of the two carbon elongated products, the overall conversion rate decreased by at least 35%.
To further confirm the substrate specificity of HSELO1p, the recombinant yeast strain 334(pRAE-58-A1) was grown in minimal media containing 25 μM of saturated, monounsaturated, or PUFAs. […] However, this is not an increase in the level of OA compared to the samples where PTA was not added, as OA was 25-31% of the total fatty acids in all samples. […] The levels of these fatty acids were 0.74% (C20:2n-6), 2.46% (DGLA), and 2.14% (ADA), respectively, of the total fatty acids in the lysates of 334(pRAE-58-A1). […] HSELO1p is also involved in the elongation of n-3 PUFAs ALA, STA, and EPA, but not DPA (FIG. 53C). […] The levels of these fatty acids were 1.03% ETrA, 2.24% (ETA), and 3.19% (DPA), respectively, of the total fatty acids in the strain containing the pRAE-58-A1 sequence.

B1: HSELO1: human elongase from liver cDNA (SEQ ID NO:3), expressed in yeast from pRAE-58-A1 (protein, listed as Homo sapiens)
chain: MEHFDASLSTYFKALLGPRDTRVKGWFLLDNYIPTFICSVIYLLIVWLGPKYMRNKQPFSCRGILVVYNLGLTLLSLYMFCELVTGVWEGKYNFFCQGTRTAGESDMKIIRVLWWYYFSKLIEFMDTFFFILRKNNHQITVLHVYHHASMLNIWWFVMNWVPCGHSYFGATLNSFIHVLMYSYYGLSSVPSMRPYLWWKKYITQGQLLQFVLTIIQTSCGVIWPCTFPLGWLYFQIGYIISLIALFTNFYIQTYNKKGASRRKDHLKDHQNGSVAAVNGHTNSFSPLENNVKPRKLRKD
For B1, the “level of ADA, of total fatty acids” value (25 μM AA, 24 hours at 30° C., FIG. 45) was 1.21%, the “conversion of AA to ADA” value (25 μM AA, FIG. 52) was 27.5% and the “level of ADA, of the total fatty acids” value (25 μM AA, FIG. 52) was 2.91%. The “conversion of AA to ADA” value (25 μM AA, FIG. 53B) was 27.1%, the “level of ADA, of the total fatty acids” value (25 μM AA, FIG. 53B) was 2.14% and the “conversion of ALA to ETrA” value (25 μM ALA, FIG. 53C) was 22.2%. The “level of ETrA, of the total fatty acids” value (25 μM ALA, FIG. 53C) was 1.03%, the “conversion of EPA to DPA” value (25 μM EPA, FIG. 52) was 70.3% and the “level of DPA, of the total fatty acids” value (25 μM EPA, FIG. 52) was 4.82%. For the same molecule, the “conversion of EPA to DPA” value (25 μM EPA, FIG. 53C) was 39.5%, the “level of DPA, of the total fatty acids” value (25 μM EPA, FIG. 53C) was 3.19% and the “level of DGLA, of total fatty acids” value (25 μM GLA, 24 hours at 30° C., FIG. 45) was 2.75%. The “conversion of GLA to DGLA” value (25 μM GLA, FIG. 52) was 62.4%, the “level of DGLA, of the total fatty acids” value (25 μM GLA, FIG. 52) was 3.95% and the “conversion of GLA to DGLA” value (25 μM GLA, FIG. 53B) was 51.4%. The “level of DGLA, of the total fatty acids” value (25 μM GLA, FIG. 53B) was 2.46%, the “conversion of LA to C20:2n-6” value (25 μM LA, FIG. 53B) was 13.2% and the “level of C20:2n-6, of the total fatty acids” value (25 μM LA, FIG. 53B) was 0.74%. The “conversion of STA to ETA” value (25 μM STA, FIG. 53C) was 61.9%, the “level of ETA, of the total fatty acids” value (25 μM STA, FIG. 53C) was 2.24% and the “conversion of OA to EA” value (25 μM of exogenous OA) was 8.9%. For the same molecule, the “accumulation of EA, of the total fatty acids” value (25 μM of exogenous OA, FIG. 51) was 2.25%, the “elongation of monounsaturated fatty acids OA and EA” value (25 μM substrate) was “also not involved” and the “elongation of saturated fatty acids PA, SA, ARA, BA” value (25 μM substrate, FIG. 53A) was “not involved”. The “elongation of n-6 PUFAs DGLA or ADA” value (25 μM substrate, FIG. 53B) was “but not DGLA or ADA”, the “elongation of n-3 PUFA DPA” value (25 μM substrate, FIG. 53C) was “but not DPA” and the “conversion of AA to ADA” value (100 μM AA, FIG. 52) was 15.7%. For the same molecule, the “level of ADA, of the total fatty acids” value (100 μM AA, FIG. 52) was 3.90%, the “conversion of EPA to DPA” value (100 μM EPA, FIG. 52) was 45.7% and the “level of DPA, of the total fatty acids” value (100 μM EPA, FIG. 52) was 11.50%. The “conversion of GLA to DGLA” value (100 μM GLA, FIG. 52) was 39.8%, the “level of DGLA, of the total fatty acids” value (100 μM GLA, FIG. 52) was 9.56% and the “decrease of overall conversion rate” value (100 μM versus 25 μM of substrates GLA, AA, EPA) was “at least 35%”. For the same molecule, the “OA, of the total fatty acids” value (PTA added as a substrate, not an increase, OA was 25-31% in all samples) was 12.76%, the “endogenous conversion of C16:1n-7 to C18:1n-7” value (endogenous substrate) was 20.4% and the “endogenous conversion of C18:1n-7 to C20:1n-7” value (endogenous substrate) was 58.1%. For the same molecule, the “conversion of AA to ADA” value (substrate AA, FIG. 51) was 42.7%, the “level of ADA, of the total fatty acids” value (substrate AA, FIG. 51) was 6.26% and the “conversion of ALA to ETrA” value (substrate ALA, FIG. 51) was 30.4%. For the same molecule, the “level of ETrA, of the total fatty acids” value (substrate ALA, FIG. 51) was 6.15%, the “conversion of EPA to DPA” value (substrate EPA, FIG. 51) was 71.7% and the “level of DPA, of the total fatty acids” value (substrate EPA, FIG. 51) was 6.66%. The “conversion of GLA to DGLA” value (substrate GLA, FIG. 51) was 78.3%, the “level of DGLA, of the total fatty acids” value (substrate GLA, FIG. 51) was 7.29% and the “conversion of STA to ETA” value (substrate STA, FIG. 51) was 79.2%. The “level of ETA, of the total fatty acids” value (substrate STA, FIG. 51) was 10.06%.
